doi:10.1101/2025.06.10.658938 (bioRxiv, 2025)

Key:
Experiment in all cases: split reporter
[1] = target: T1, calcitonin-like receptor (CLR), smBit-tagged Target construct (UniProt Q16602 23-461)
[2] = target: T1, calcitonin-like receptor (CLR), …; remark: listed apart in the source
[3] = target: sphingosine 1-phosphate receptor 1 (S1PR1), smBit-tagged Target construct (UniProt P21453 1-347)
Chain of sphingosine 1-phosphate receptor 1 (S1PR1), smBit-tagged Target construct (P21453 1-347): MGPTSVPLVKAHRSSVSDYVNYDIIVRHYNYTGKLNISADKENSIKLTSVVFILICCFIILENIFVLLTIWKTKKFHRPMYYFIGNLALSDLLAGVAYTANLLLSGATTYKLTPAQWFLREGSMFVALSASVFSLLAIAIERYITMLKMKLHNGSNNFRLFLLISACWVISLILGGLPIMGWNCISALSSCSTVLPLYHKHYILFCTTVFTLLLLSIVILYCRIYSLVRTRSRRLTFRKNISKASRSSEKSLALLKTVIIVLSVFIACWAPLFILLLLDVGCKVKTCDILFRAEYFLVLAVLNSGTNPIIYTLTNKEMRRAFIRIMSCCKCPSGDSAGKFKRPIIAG

T1 sequence (Q16602 23-461): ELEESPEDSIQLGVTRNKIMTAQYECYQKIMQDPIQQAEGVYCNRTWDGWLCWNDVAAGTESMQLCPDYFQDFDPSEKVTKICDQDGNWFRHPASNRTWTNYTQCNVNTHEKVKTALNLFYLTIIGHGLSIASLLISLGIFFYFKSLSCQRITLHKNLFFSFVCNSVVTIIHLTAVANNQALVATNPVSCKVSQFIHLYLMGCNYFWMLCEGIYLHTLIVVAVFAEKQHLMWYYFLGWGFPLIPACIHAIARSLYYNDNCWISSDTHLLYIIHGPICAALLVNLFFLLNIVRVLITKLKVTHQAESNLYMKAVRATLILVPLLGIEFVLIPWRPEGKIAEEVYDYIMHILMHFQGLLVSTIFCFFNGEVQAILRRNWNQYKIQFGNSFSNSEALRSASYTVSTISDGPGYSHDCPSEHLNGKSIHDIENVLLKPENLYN

B1: receptor activity-modifying protein 1 (RAMP1), LgBit-tagged Binder construct (natural protein)
chain: CQEANYGALLRELCLTQFQVDMEAVGETLWCDWGRTIRSYRELADCTWHMAEKLGCFWPNAEVDRFFLAVHGRYFRSCPISGRAVRDPPGSILYPFIVVPITVTLLVTALVVWQSKRTEGIV
fold change of expression-normalised NanoBit over CLR+CD8a (1 ng Binder DNA) [1]: 2.7 ± 0.2 fold | fold change of expression-normalised NanoBit over CLR+CD8a (5 ng Binder DNA) [1]: 2.9 ± 0.1 fold | fold change of expression-normalised NanoBit over CLR+CD8a (10 ng Binder DNA) [1]: 2.7 ± 0.1 fold | fold change of expression-normalised NanoBit over CLR+CD8a (20 ng Binder DNA) [1]: 2.1 ± 0.1 fold | fold change of NanoBit luminescence over CLR+CD8a (1 ng Binder DNA) [2]: 13 ± 1.45 fold | fold change of NanoBit luminescence over CLR+CD8a (20 ng Binder DNA) [2]: 2.16 ± 0.04 fold

B2: CD69 V48F, V49F double mutant, LgBit-tagged Binder construct (natural protein)
chain: SENCFVAENSSLHPESGQENDATSPHFSTRHEGSFQVPVLCAVMNFFFITILIIALIALSVGQYNCPGQYTFSMPSDSHVSSCSEDWVGYQRKCYFISTVKRSWTSAQNACSEHGATLAVIDSEKDMNFLKRYAGREEHWVGLKKEPGHPWKWSNGKEFNNWFNVTGSDKCVFLKNTEVSSMECEKNLYWICNKPYK
percent decrease of expression-normalised NanoBit relative to WT CD69 [3]: 30%

LYPFIVVPITVTLLVTALVVWQSKRTEGIV (domain or fragment, UniProt O60894 119-148, looked up) [HALO-RAMP1-TM, LgBit-tagged Binder chimera]
fold reduction of expression-normalised NanoBit relative to WT CLR-RAMP1 [1]: 2 fold

LYPFIVVPITVTLLVTALVVWQSKRTEGIV (domain or fragment, UniProt O60894 119-148, looked up) [InnTag5-RAMP1-TM, LgBit-tagged Binder chimera]
fold reduction of expression-normalised NanoBit relative to WT CLR-RAMP1 [1]: 2 fold
